In patent US20230279079A1:
pIC50: −log10 of the molar value.

Tests used:
[1] = biological target: spike glycoprotein of wild type SARS-CoV-2 virus (SARS-CoV-2) (UniProt P0DTC2); assay: cell-based or functional assay
RBD-VLP (SARS-CoV-2) = RBD-VLP (SARS-CoV-2) (UniProt P0DTC2)

| Substance | Neutralization by PRNT EC50 [1] [nM] | pIC50 (RBD-VLP (SARS-CoV-2)) |
| --- | --- | --- |
| CR3022 (antibody) | 42 | – |
| VHH72-Fc | – | 8.70 |
